Assay [1] concerns the target T1, orexin receptor 1 (OX1R) (human (endogenous in HepG2)) (UniProt O43613).
T1 sequence: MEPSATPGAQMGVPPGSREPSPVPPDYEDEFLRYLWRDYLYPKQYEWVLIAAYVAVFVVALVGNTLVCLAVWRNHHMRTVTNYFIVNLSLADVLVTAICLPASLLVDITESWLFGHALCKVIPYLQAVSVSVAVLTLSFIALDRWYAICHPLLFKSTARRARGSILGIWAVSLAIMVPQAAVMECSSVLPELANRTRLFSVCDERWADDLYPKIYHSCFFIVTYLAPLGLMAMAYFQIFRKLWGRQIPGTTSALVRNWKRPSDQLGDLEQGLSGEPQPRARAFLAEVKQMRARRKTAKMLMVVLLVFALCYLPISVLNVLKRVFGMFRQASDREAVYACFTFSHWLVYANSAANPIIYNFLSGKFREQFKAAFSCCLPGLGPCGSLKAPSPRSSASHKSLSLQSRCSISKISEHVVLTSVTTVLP

Assay [2] addresses T1, orexin receptor 1 (OX1R) (human (endogenous in HepG2)). This is another data set of the same source.
Assay [3] shares this target. The source holds these as a separate data set.

In the case of QPLPDCCRQKTCSCRLYELLHGAGNHAAGILTL [Orexin A], in assay [1], the cellular ATP content in HepG2 cells, orexin A 10^-9 to 10^-7 M for 2 h, fold of control; abrogated by the OX1R inhibitor SB334867 (10^-6 M) worked out at 3.03 fold. In assay [2], this molecule showed a GLUT1 protein expression (western blot) in HepG2 cells, orexin A 10^-9 to 10^-7 M for 2 h, fold of untreated cells; blocked by the OX1R inhibitor SB334867 (10^-6 M) of 2.43 fold and a glucose uptake (2-deoxy-D-[3H]glucose) in HepG2 cells, orexin A 10^-9 to 10^-7 M, fold of control; blocked by the OX1R inhibitor SB334867 (10^-6 M) of 1.71 fold. Besides, in assay [3], the LDHA mRNA (real-time PCR) in HepG2 cells, 10^-7 M orexin A for 2 h, fold against control; dampened by the OX1R inhibitor SB334867 (10^-6 M) was found to be 0.5 fold and the PDK1 mRNA (real-time PCR) in HepG2 cells, 10^-7 M orexin A for 2 h, fold against control; dampened by the OX1R inhibitor SB334867 (10^-6 M) came to 0.53 fold.

Source of the values: paper PMC5590901.
